The results in this text go back to patent US20030119023, “Nucleic acid binding polypeptides characterized by flexible linkers connected nucleic acid binding modules” (published 2003).

For one series, the target named is 2x3F ZIF-GAC (artificial). The series can be described thus: EMSA; apparent Kd. Particulars: label: 32P. How it is done: (§1) DNA binding reactions contain the appropriate zinc-finger peptide, binding site and 1 μg competitor DNA (poly dI-dC) in a total volume of 10 μl, which contains: 20 mM Bis-tris propane (pH 7.0), 100 mM NaCl, 5 mM MgCl₂, 50 μM ZnCl₂, 5 mM DTT, 0.1 mg/ml BSA, 0.1% Nonidet P40. Incubations are performed at room temperature for 1 hour.
(§2) Dissociation constants are determined in parallel to the calculation of active peptide concentration. Serial 3, 4 or 5-fold dilutions of crude peptide are made and incubated with radiolabelled binding site (0.1 pM-500 pM depending on the peptide), as above. Samples are run on 7% native polyacrylamide gels and the radioactive signals quantitated by PhosphorImager analysis. The data is then analysed according to linear transformation of the binding equation and plotted in CA-Cricket Graph III (Computer Associates Inc. NY) to generate the apparent dissociation constants. The Kd values reported are the average of at least two separate studies.
In general terms: In EMSA bound probe runs differently from free probe, usually more slowly.

The next series has as its target 3x2F ZGXL (artificial). In words: EMSA. The note with it: label: 32P. How it is done:
as §1
3x2F ZGXL binds the non-contiguous site bsD approximately as tightly as the 3x2F ZGS peptide binds the contiguous 18 bp site, bsC. However, the 3x2F ZGXL peptide binds bsE (containing 2 base pair gaps between target subsites) approximately 500-fold less tightly than it does bsC and bsD, as shown in FIG. 11. This is presumably because it can only bind bsE through 2 fingers.

The target of series [1] is ZIF-ZnF-GAC (serine-finger linker) (artificial). The series can be described thus: EMSA; apparent Kd. Particulars: label: 32P. How it is done:
as §1, §2
A further set of binding studies is then carried out on the construct containing the non-specific zinc finger linker, ZIF-ZnF-GAC. Although this construct is expected to target (primarily) non-contiguous sequences containing three or four base pairs of non-bound DNA, it is tested against all of the binding sites from ZM to Z10M. […]

The target of series [2] is 3x2F ZGS (artificial). The series can be described thus: EMSA; apparent Kd. Particulars: label: 32P. How it is done:
as §1, §2
(§3) First the 3x2F ZGS and ZGL peptides are titrated against 12/34/56 (three 6 bp subsites separated by 1 bp, which is represented by a single ‘/’ in the binding site name) and 12//34//56 (three 6 bp subsites separated by 2 bps) binding sites. […] Next, the 3x2F ZGSL and 3x2F ZGLS peptides are targeted against the three non-contiguous sequences: 1234/56, 12/3456 and 12//34//56. […] 3x2F ZGLS show a similar trend in binding affinities.

A further series concerns the target 3x2F ZGLS (artificial). In words: EMSA; apparent Kd. Particulars: label: 32P. How it is done: as §1, §2, §3
The target of another series is 3x2F ZGSL (artificial). In words: EMSA; apparent Kd. Particulars: label: 32P. As to the method:
as §1, §2, §3

Series [3] has as its target 3x2F ZGS (artificial). The series can be described thus: EMSA; apparent Kd. The note with it: label: 32P. How it is done: as §1, §2
This is another data set of the same source.

Series [4] addresses TF(1-4)-ZIF (TFIIIA F1-4 fused to Zif268) (artificial). In words: EMSA; apparent Kd; table prints gap as X9. The note with it: label: 32P. As to the method:
as §1, §2
(§4) The TF(1-4)-ZIF and TF(1-3)-flex-ZIF peptides are tested against the non-contiguous TF-5,6,7,8,9-Z sites. In these first experiments the DNA composition of the non-bound region is based on the endogenous TFIIIA target site. […] The target sites with 5, 6 or 9 bp gaps are bound at least 5-fold weaker (FIG. 27A). […]

The target of series [5] is ZIF-ZnF-GAC (serine-finger linker) (artificial). The series can be described thus: EMSA. Particulars: label: 32P. As to the method:
as §1
For this purpose a ‘neutral’ finger is created by replacing the DNA binding residues (those at positions −1, 2, 3, and 6) of wild type ZIF268 finger 2, with serine residues. Serine can act as either an H-bond acceptor or donator, and can therefore interact with all four bases in DNA. This new finger, denoted “ZnF” and flanked by two GERP linkers, is used to join the three-finger peptides of ZIF and the GAC-clone, creating the seven-finger array ZIF-ZnF-GAC (FIG. 17). This peptide is targeted against non-contiguous sites comprising the 9 bp ZIF and GAC-clone recognition sequences separated by 2, 3, 4 or 5 bps of DNA, and also sites bsA and bsC for comparison (FIG. 21).

Series [6] concerns the target TF(1-4)-ZIF (TFIIIA F1-4 fused to Zif268) (artificial). In words: EMSA; no preference for gap composition (data not shown). Particulars: label: 32P.
In series [7] the target is GAC-F4-ZIF (artificial). In words: EMSA; 10 bp gap spanned without significant loss. The note with it: label: 32P.
Series [8] addresses TF(1-4)-ZIF (TFIIIA F1-4 fused to Zif268) (artificial). The series can be described thus: EMSA; apparent Kd; table prints gap as X5. The note with it: label: 32P. How it is done:
as §1, §2

The target in series [9] is GAC-F4-ZIF (artificial). In words: EMSA; 7 bp gap spanned without significant loss. The note with it: label: 32P.
For a further series, the target named is 3x2F ZGL (artificial). In words: EMSA; apparent Kd. The note with it: label: 32P. As to the method:
as §1, §2, §3

The target of series [10] is TF(1-4)-ZIF (TFIIIA F1-4 fused to Zif268) (artificial). The series can be described thus: EMSA; apparent Kd; table prints gap as X6. Particulars: label: 32P. How it is done: as §1, §2, §4
In series [11] the target is Zif268 (wild-type ZIF, three-finger) (UniProt P08046 P08046:333-421). In words: EMSA; Bis-tris propane pH 7.0, 100 mM NaCl, 5 mM MgCl2, 50 uM ZnCl2, room temperature.
For series [12], the target named is TF(1-4)-ZIF (TFIIIA F1-4 fused to Zif268) (artificial). The series can be described thus: EMSA; apparent Kd; table prints gap as X7. The note with it: label: 32P. As to the method: as §1, §2, §4
Series [13] shares this target. In words: EMSA; apparent Kd; table prints gap as X8. Particulars: label: 32P. As to the method: as §1, §2, §4
Series [14] concerns the target GAC-F4-ZIF (artificial). In words: EMSA; optimal 8 bp gap. The note with it: label: 32P. How it is done:
as §1
(§5) To determine whether TFIIIA F4 would still function as a linker when taken out of the context of neighbouring TFIIIA fingers, the GAC-F4-ZIF construct is made (FIGS. 14 and 16). This construct can be thought of simply as two ZIF-based DNA binding domains joined by a structured linker (in this case TFIIIA F4). […] In this case, however, the optimal DNA span is found to be 8 or 9 bps, although 7-11 bp stretches could be spanned without a significant loss in binding affinity.

For series [15], the target named is GAC-F4-ZIF (artificial). The series can be described thus: EMSA; optimal 9 bp gap. The note with it: label: 32P. How it is done:
as §1, §5

Chain of GAC-F4-ZIF (artificial) (chain, as listed by the source): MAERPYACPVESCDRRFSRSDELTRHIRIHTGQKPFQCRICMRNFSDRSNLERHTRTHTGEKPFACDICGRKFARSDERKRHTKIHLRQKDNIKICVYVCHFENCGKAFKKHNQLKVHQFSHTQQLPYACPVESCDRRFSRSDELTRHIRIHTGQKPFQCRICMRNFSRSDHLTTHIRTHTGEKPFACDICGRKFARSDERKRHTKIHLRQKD
Chain of 2x3F ZIF-GAC (artificial) (chain, as listed by the source): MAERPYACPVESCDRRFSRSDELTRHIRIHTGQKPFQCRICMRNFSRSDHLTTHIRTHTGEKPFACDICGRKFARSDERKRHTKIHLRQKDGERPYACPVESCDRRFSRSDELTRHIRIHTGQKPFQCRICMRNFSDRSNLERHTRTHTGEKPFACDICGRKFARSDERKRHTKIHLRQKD
Chain of ZIF-ZnF-GAC (serine-finger linker) (artificial) (chain, as listed by the source): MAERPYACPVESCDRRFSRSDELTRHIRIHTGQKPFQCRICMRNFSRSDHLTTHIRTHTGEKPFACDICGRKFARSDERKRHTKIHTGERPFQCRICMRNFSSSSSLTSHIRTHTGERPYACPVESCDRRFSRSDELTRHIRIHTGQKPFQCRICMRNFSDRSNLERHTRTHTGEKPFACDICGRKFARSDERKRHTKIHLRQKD
Chain of 3x2F ZGLS (artificial) (chain, as listed by the source): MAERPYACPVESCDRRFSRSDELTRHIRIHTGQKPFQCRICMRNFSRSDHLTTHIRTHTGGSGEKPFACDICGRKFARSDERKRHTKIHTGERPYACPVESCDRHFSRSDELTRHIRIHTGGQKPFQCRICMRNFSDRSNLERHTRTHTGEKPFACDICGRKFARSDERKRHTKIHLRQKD
Chain of TF(1-4)-ZIF (TFIIIA F1-4 fused to Zif268) (artificial) (chain, as listed by the source): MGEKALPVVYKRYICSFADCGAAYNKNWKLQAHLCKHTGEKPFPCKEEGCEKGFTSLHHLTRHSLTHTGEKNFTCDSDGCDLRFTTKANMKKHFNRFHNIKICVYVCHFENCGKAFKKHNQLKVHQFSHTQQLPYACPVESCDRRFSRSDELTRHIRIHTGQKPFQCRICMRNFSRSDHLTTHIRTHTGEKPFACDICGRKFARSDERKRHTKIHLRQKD
Chain of 3x2F ZGSL (artificial) (chain, as listed by the source): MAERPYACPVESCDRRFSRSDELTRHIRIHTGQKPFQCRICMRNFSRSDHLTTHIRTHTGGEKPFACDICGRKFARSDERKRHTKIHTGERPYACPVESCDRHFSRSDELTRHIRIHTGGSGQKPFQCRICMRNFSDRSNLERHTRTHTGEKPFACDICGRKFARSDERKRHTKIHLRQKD
Chain of 3x2F ZGS (artificial) (chain, as listed by the source): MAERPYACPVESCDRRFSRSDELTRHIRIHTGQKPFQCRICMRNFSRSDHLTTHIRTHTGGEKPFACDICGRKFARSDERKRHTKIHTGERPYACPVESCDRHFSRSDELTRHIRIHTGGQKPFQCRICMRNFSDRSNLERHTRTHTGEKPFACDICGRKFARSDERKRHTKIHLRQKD
Chain of 3x2F ZGL (artificial) (chain, as listed by the source): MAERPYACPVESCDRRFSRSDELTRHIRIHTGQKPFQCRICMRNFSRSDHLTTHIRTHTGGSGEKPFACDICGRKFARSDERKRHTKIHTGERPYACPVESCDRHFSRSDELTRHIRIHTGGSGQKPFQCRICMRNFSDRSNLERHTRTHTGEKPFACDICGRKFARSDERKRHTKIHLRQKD
Chain of 3x2F ZGXL (artificial) (chain, as listed by the source): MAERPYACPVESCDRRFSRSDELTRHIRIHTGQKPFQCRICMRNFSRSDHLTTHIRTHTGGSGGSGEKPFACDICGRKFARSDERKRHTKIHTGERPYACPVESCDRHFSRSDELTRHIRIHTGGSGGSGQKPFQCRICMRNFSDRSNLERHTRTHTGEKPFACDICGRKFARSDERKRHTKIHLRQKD

B1: bsC (123456, ZM) (dsDNA)
DNA 1: GCGGACGCGGCGTGGGCG
DNA 2: CGCCCACGCCGCGTCCGC
For B1, the figures for the Kd (in the series with 2x3F ZIF-GAC; in [1]) were 0.0014 nM and 0.007 nM, respectively. Further, in the series with 3x2F ZGXL, the binding result was “binds”.

B2: bsF (1234/56 in Table 5) (dsDNA)
DNA 1: GCGGACTGCGGCGTGGGCG
DNA 2: CGCCCACGCCGCAGTCCGC
With B2, the Kd with 3x2F ZGS [2] was 0.054 nM; with 3x2F ZGLS, 0.089 nM; with 3x2F ZGSL, 0.003 nM.

B3: bs1 (12356) (dsDNA)
DNA 1: GCGGACGCGTGGGCG
DNA 2: CGCCCACGCGTCCGC
As to B3, the Kd with 3x2F ZGS [3] was 22 nM; with 2x3F ZIF-GAC it was 0.36 nM.

B4: TF9Z (bsE1) (dsDNA)
DNA 1: GCGTGGGCGTTAGTACCTGGATGGGAGAC
DNA 2: GTCTCCCATCCAGGTACTAACGCCCACGC
Consider B4, for which the Kd in [4] turned out to be 0.015 nM.

B5: Z3G (dsDNA)
DNA 1: GCGGACGCGAGTGCGTGGGCG
DNA 2: CGCCCACGCACTCGCGTCCGC
The molecule B5 gave a binding signal in series [5] not below 500 fold stronger than bsA.

B6: bsG1 (dsDNA)
DNA 1: GCGTGGGCGCTTGACGGATGGGAGAC
DNA 2: GTCTCCCATCCGTCAAGCGCCCACGC
In the case of B6, the binding result in series [6] is listed as “binds”.

B7: bsE2 (dsDNA)
DNA 1: GCGTGGGCGTTAGTACCTGGCGGACGCG
DNA 2: CGCGTCCGCCAGGTACTAACGCCCACGC
Take B7: in the series with GAC-F4-ZIF [7], the binding result was “binds”.

B8: Z5G (dsDNA)
DNA 1: GCGGACGCGCTAGTGCGTGGGCG
DNA 2: CGCCCACGCACTAGCGCGTCCGC
On to B8, for which the binding signal in series [5] was not below 500 fold stronger than bsA.

B9: bs3 (123//56) (dsDNA)
DNA 1: GCGGACTCGCGTGGGCG
DNA 2: CGCCCACGCGAGTCCGC
For B9, the Kd in the series with 3x2F ZGS [3] was determined as 0.27 nM; with 2x3F ZIF-GAC, 0.014 nM.

B10: bsH1 (dsDNA)
DNA 1: GCGTGGGCGAAAAAAGGATGGGAGAC
DNA 2: GTCTCCCATCCTTTTTTCGCCCACGC
Regarding B10, in series [6], the binding result is “binds”.

B11: bs4 (123///56) (dsDNA)
DNA 1: GCGGACATCGCGTGGGCG
DNA 2: CGCCCACGCGATGTCCGC
Regarding B11, the Kd with 3x2F ZGS [3] worked out at 0.89 nM; in the series with 2x3F ZIF-GAC, 0.015 nM.

B12: TF5Z (bsA1) (dsDNA)
DNA 1: GCGTGGGCGTACCTGGATGGGAGAC
DNA 2: GTCTCCCATCCAGGTACGCCCACGC
For B12, the Kd in series [8] stood at 0.021 nM.

B13: bsB2 (dsDNA)
DNA 1: GCGTGGGCGGTACCTGGCGGACGCG
DNA 2: CGCGTCCGCCAGGTACCGCCCACGC
For the molecule B13, the binding result with GAC-F4-ZIF [9] is “binds”.

B14: bsE (12//34//56) (dsDNA)
DNA 1: GCGGAGTCGCGGCGTCTGGGCG
DNA 2: CGCCCAGACGCCGCGACTCCGC
As to B14, the Kd with 3x2F ZGLS came to 12 nM; with 3x2F ZGSL it was 12 nM; with 3x2F ZGL, 11 nM.

B15: Z4G (dsDNA)
DNA 1: GCGGACGCGTAGTGCGTGGGCG
DNA 2: CGCCCACGCACTACGCGTCCGC
B15 displayed a binding signal in series [5] not below 500 fold stronger than bsA.

B16: TF6Z (bsB1) (dsDNA)
DNA 1: GCGTGGGCGGTACCTGGATGGGAGAC
DNA 2: GTCTCCCATCCAGGTACCGCCCACGC
Regarding B16, in series [10], the Kd was found to be 0.017 nM.

B17: bsA (ZIF site) (dsDNA)
DNA 1: GCGTGGGCG
DNA 2: CGCCCACGC
In series [11], B17 came in with a Kd of 0.45 nM.

B18: TF7Z (bsC1) (dsDNA)
DNA 1: GCGTGGGCGAGTACCTGGATGGGAGAC
DNA 2: GTCTCCCATCCAGGTACTCGCCCACGC
On to B18, for which the Kd in series [12] amounted to 0.003 nM.

B19: bsG (12/3456 in Table 5) (dsDNA)
DNA 1: GCGGACGCGGCGTTGGGCG
DNA 2: CGCCCAACGCCGCGTCCGC
Regarding B19, the figures for the Kd in the series with 3x2F ZGS [2], with 3x2F ZGLS and with 3x2F ZGSL were 0.077 nM, 0.005 nM and 0.073 nM, respectively.

B20: bs2 (123/56) (dsDNA)
DNA 1: GCGGACTGCGTGGGCG
DNA 2: CGCCCACGCAGTCCGC
B20: the Kd in the series with 3x2F ZGS [3] amounted to 0.63 nM; with 2x3F ZIF-GAC, 0.014 nM.

B21: TF8Z (bsD1) (dsDNA)
DNA 1: GCGTGGGCGTAGTACCTGGATGGGAGAC
DNA 2: GTCTCCCATCCAGGTACTACGCCCACGC
B21: in series [13], the Kd was determined as 0.003 nM.

B22: Z2G (dsDNA)
DNA 1: GCGGACGCGGTGCGTGGGCG
DNA 2: CGCCCACGCACCGCGTCCGC
In turn, B22 gave a binding signal in series [5] not below 500 fold stronger than bsA.

B23: bsC2 (dsDNA)
DNA 1: GCGTGGGCGAGTACCTGGCGGACGCG
DNA 2: CGCGTCCGCCAGGTACTCGCCCACGC
On to B23, for which the binding signal in the series with GAC-F4-ZIF [14] was not below 125 fold stronger than bsA.

B24: bsD2 (dsDNA)
DNA 1: GCGTGGGCGTAGTACCTGGCGGACGCG
DNA 2: CGCGTCCGCCAGGTACTACGCCCACGC
B24 had a binding signal with GAC-F4-ZIF [15] not below 125 fold stronger than bsA.

B25: bsD (12/34/56) (dsDNA)
DNA 1: GCGGACTGCGGCGTTGGGCG
DNA 2: CGCCCAACGCCGCAGTCCGC
Turning to B25, the Kd with 3x2F ZGS [2] was found to be 18 nM; with 3x2F ZGLS it was 0.12 nM; in the series with 3x2F ZGSL, 0.11 nM; with 3x2F ZGL, 0.005 nM.
